How the values were obtained:
[1] = tested on: focal adhesions of NIH3T3 fibroblasts; experiment: KANK1 localization to focal adhesions (co-expression with GFP–paxillin); type: cell-based, mouse; settings: NIH3T3 fibroblasts co-expressing GFP–paxillin
Experimental: (§1) NIH3T3 mouse fibroblasts and HEK293T human epithelial cells were obtained from the American Type Culture Collection (ATCC). The vinculin null and WT mouse embryonic fibroblasts (MEFs) originate from the Eileen Adamson laboratory. All cells were maintained in Dulbecco's Modified Eagle Medium (DMEM; Sigma) supplemented with 10% fetal bovine serum (FBS, Gibco), 1% L-glutamine (Sigma) and 1% non-essential amino acids (Sigma). Talin1&2 null cells were cultured in DMEM F-12 (Gibco) supplemented with 10% FBS, 1% L-glutamine, 1% non-essential amino acids and […] HEPES (Sigma). All cells were cultured at 37̊C supplied with 5% CO2 and 95% humidity. Transient transfections were performed using Lipofectamine LTX with Plus Reagent (Invitrogen) to NIH3T3 cells, Lipofectamine 2000 (Invitrogen) to talin null cells, and jetPRIME reagent (Polyplus) to MEFs and HEK293T cells, as per the manufacturer's instructions.
(§2) For the construction of mCherry-KANK1, human FL-KANK1 (generous donation from the Bershadsky laboratory) cDNA was tagged in the C-terminal site with pmCherry (Clontech) by restriction digestion. Point mutations (L41E, L43E, F45E and V49E) were introduced in mCherry-KANK1 by site-directed mutagenesis (NEB) using the following oligonucleotides: […]ga[…] and […] for L41E; […]ga[…] and […] for L43E; […]gaa[…] and […] for F45E; […]a[…] and […] for V49E. Generation of GFP–talin1–cBAK and GFP–cBAK was as previously described. G1404L was introduced on GFP–talin1–cBAK by the method above using […]ctt[…] and […]. To generate GFP–talin1 R7DD–cBAK and GFP–talin1 R9DD-cBAK constructs, R7-DD (3555 bp) and R9-DD (2661 bp) were amplified from talin-1 (Mus musculus). Restriction digestion with XhoI and HindIII FastDigest enzymes (Thermo Scientific) was used to linearize GFP–cBAK. DNA assembly was performed to join R7-DD and R9-DD to linearized the GFP–cBAK vector using the NEBuilder HiFi DNA assembly kit (NEB).
(§3) Images of fixed samples in PBS were acquired at room temperature using an Olympus IX83 inverted microscope equipped with a 60×/1.42 PlanApo N oil objective and a QImaging Retiga R6 CCD camera, controlled by Metamorph software. Samples were illuminated using LEDs (UV/Cyan/Green-Yellow/Red, Lumencor) for fluorescence excitation; a Sedat filter set (DAPI/FITC/TRITC/Cy5, Chroma, 89000) was used.

GFP–talin1–cBAK = experiment: Mitochondrial targeting system (MTS): recruitment of mCherry–KANK1 by GFP–talin1–cBAK; type: cell-based; settings: NIH3T3 fibroblasts and HEK293T cells; fluorescence microscopy colocalization
Text: To examine the effect of these KANK1 mutations on talin interactions in cells, we next used a mitochondrial targeting system (MTS) which we previously used to screen for defined protein–protein interactions. In this assay, one protein is fused to a small peptide sequence from the pro-apoptotic protein BAK (cBAK) which leads to its insertion into the outer membrane of mitochondria. Proteins that interact with the cBAK-tagged protein will get recruited to mitochondria, and this recruitment can be verified either by visualizing colocalization using fluorescence microscopy (figure 4a) or by purification of mitochondria followed by detection of co-precipitates using biochemistry (figure 4b,c). […] To confirm that the interaction was meditated by the R7 domain, we performed the colocalization assays with truncated talin constructs.
as §1, §2, §3

[2] = tested on: α/β liprin in NIH3T3 fibroblasts; experiment: α/β liprin localization (CMSC assembly); type: cell-based, mouse; settings: NIH3T3 fibroblasts co-transfected with GFP–paxillin and mCherry–KANK1 F45E; immunostaining
Experimental: as §1, with “instructions. […]” for “instructions.”
as §3

talin1-cBAK = experiment: Mitochondria pulldown of KANK1 WT or point mutations, Western blot; type: cell-based; settings: HEK293T cells; mitochondrial pulldown, triplicate experiments, normalized to WT; *** p < 0.001 (one-way ANOVA, Dunnett's)
Text: as §2
For fixed cell imaging, cells were cultured in glass-bottom dishes (IBL) coated with bovine fibronectin (Sigma) at a final concentration of 10 µg ml^−1. Samples were fixed in 4% paraformaldehyde (PFA, Sigma), and warmed to 37̊C, for 15 min before being washed three times with PBS. For immunofluorescence staining, samples were permeabilized at room temperature with 0.5% Triton X-100 (Sigma) for 5 min before being washed three times. […]
Protein samples were extracted from cells and mitochondria, respectively, using RIPA lysis buffer (Chromotek) supplemented with protease inhibitors. […] Primary antibody signal was detected using goat anti-mouse IgG conjugated to IRDye 680RD (ab216776, abcam) and goat anti-rabbit IgG conjugated to IRDye 800CW (ab216773, abcam) secondary antibodies, diluted 1 : 15 000, imaged with an Odyssey CLx imaging system (LI-CO Biosciences). […]

B1: KANK1 F45E: mCherry-KANK1 with point mutation F45E (protein)
chain: MAHTTKVNGSASGKAGDILSGDQDKEQKDPYFVETPYGYQLDLDELKYVDDIQKGNTIKRLNIQKRRKPSVPCPEPRTTSGQQGIWTSTESLSSSNSDDNKQCPNFLIARSQVTSTPISKPPPPLETSLPFLTIPENRQLPPPSPQLPKHNLHVTKTLMETRRRLEQERATMQMTPGEFRRPRLASFGGMGTTSSLPSFVGSGNHNPAKHQLQNGYQGNGDYGSYAPAAPTTSSMGSSIRHSPLSSGISTPVTNVSPMHLQHIREQMAIALKRLKELEEQVRTIPVLQVKISVLQEEKRQLVSQLKNQRAASQINVCGVRKRSYSAGNASQLEQLSRARRSGGELYIDYEEEEMETVEQSTQRIKEFRQLTADMQALEQKIQDSSCEASSELRENGECRSVAVGAEENMNDIVVYHRGSRSCKDAAVGTLVEMRNCGVSVTEAMLGVMTEADKEIELQQQTIESLKEKIYRLEVQLRETTHDREMTKLKQELQAAGSRKKVDKATMAQPLVFSKVVEAVVQTRDQMVGSHMDLVDTCVGTSVETNSVGISCQPECKNKVVGPELPMNWWIVKERVEMHDRCAGRSVEMCDKSVSVEVSVCETGSNTEESVNDLTLLKTNLNLKEVRSIGCGDCSVDVTVCSPKECASRGVNTEAVSQVEAAVMAVPRTADQDTSTDLEQVHQFTNTETATLIESCTNTCLSTLDKQTSTQTVETRTVAVGEGRVKDINSSTKTRSIGVGTLLSGHSGFDRPSAVKTKESGVGQININDNYLVGLKMRTIACGPPQLTVGLTASRRSVGVGDDPVGESLENPQPQAPLGMMTGLDHYIERIQKLLAEQQTLLAENYSELAEAFGEPHSQMGSLNSQLISTLSSINSVMKSASTEELRNPDFQKTSLGKITGNYLGYTCKCGGLQSGSPLSSQTSQPEQEVGTSEGKPISSLDAFPTQEGTLSPVNLTDDQIAAGLYACTNNESTLKSIMKKKDGNKDSNGAKKNLQFVGINGGYETTSSDDSSSDESSSSESDDECDVIEYPLEEEEEEEDEDTRGMAEGHHAVNIEGLKSARVEDEMQVQECEPEKVEIRERYELSEKMLSACNLLKNTINDPKALTSKDMRFCLNTLQHEWFRVSSQKSAIPAMVGDYIAAFEAISPDVLRYVINLADGNGNTALHYSVSHSNFEIVKLLLDADVCNVDHQNKAGYTPIMLAALAAVEAEKDMRIVEELFGCGDVNAKASQAGQTALMLAVSHGRIDMVKGLLACGADVNIQDDEGSTALMCASEHGHVEIVKLLLAQPGCNGHLEDNDGSTALSIALEAGHKDIAVLLYAHVNFAKAQSPGTPRLGRKTSPGPTHRGSFD
modifications: left off: mCherry, C-terminal, kept
[1]
  localization of mCherry–KANK1 to FAs / FA belt: abolished localization to FAs and the FA belt
GFP–talin1–cBAK
  recruitment of mCherry–KANK1 to mitochondria by GFP–talin1–cBAK: abolishes GFP–talin–cBAK mediated recruitment
[2]
  α/β liprin localization: loss of α/β liprin from both the adhesion belt and the cellular cortex
talin1-cBAK
  relative KANK1 binding to talin1-cBAK (%): not detected

— publication PMC10281804, “The structural basis of the talin–KANK1 interaction that coordinates the actin and microtubule cytoskeletons at focal adhesions” (Open Biology, 2023)
